Experimental findings from patent EP4782465A1 are described below.

The target in assay [1] is Human insulin receptor subtype B (human) (UniProt P06213). Kind of assay: cell-based or functional assay.
Assay [2] has as its target Insulin receptor of C2C12 mouse myoblasts (mouse) (UniProt P15208). Description: cell-based or functional assay.

Insulin receptor of C2C12 mouse myoblasts (mouse), sequence (P15208 28-1372): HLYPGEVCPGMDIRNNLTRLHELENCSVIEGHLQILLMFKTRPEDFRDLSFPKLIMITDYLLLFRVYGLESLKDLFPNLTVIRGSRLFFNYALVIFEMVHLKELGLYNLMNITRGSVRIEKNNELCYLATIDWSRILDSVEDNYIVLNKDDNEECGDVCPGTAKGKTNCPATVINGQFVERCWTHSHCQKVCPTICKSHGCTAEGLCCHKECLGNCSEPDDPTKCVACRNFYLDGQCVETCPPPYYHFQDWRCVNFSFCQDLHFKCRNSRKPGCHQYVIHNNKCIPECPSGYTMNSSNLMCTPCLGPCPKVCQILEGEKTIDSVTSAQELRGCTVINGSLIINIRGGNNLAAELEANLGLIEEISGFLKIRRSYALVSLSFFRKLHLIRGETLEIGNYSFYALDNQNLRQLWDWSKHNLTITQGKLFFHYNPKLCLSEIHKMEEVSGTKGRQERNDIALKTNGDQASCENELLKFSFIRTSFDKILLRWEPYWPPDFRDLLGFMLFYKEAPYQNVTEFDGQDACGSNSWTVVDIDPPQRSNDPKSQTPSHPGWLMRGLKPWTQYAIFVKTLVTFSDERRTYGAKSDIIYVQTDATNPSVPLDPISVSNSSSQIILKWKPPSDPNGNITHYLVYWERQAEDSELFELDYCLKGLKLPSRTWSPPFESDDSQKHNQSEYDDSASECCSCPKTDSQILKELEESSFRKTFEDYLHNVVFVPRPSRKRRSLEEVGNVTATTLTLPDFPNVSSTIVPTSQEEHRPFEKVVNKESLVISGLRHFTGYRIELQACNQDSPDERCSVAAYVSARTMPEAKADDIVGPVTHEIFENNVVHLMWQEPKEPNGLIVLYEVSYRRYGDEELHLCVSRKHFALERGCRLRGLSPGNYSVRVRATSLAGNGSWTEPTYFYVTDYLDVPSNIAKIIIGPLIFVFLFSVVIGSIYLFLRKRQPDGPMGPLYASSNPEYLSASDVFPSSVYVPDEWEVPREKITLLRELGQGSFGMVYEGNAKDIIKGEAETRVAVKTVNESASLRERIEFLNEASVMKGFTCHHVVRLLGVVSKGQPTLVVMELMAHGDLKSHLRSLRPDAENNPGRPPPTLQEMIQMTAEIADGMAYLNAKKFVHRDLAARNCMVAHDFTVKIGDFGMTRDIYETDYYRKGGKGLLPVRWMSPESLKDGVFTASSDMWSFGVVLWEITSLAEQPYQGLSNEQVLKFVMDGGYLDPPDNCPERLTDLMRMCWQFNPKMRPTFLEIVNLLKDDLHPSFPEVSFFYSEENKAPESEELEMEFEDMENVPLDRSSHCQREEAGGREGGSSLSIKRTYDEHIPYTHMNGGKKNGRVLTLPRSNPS

LY3209590 (Fc fusion) came in with a Human insulin receptor subtype B activity (EC50) in assay [1] of 0.116 µM. Moreover, in assay [2], the AKT phosphorylation activity (EC50) is 0.194 µM.
